Results on 1 protein are retold here after PMC4390494 (Journal of immunology (Baltimore, Md. : 1950), 2015).

The data set deals with the molecule itself. As to the kind of experiment: pull-down.

B1: HkRP3 (1) (aa 1-724), GST- or MBP-fused (domain or fragment, UniProt A6NC98-1 1-724, looked up)
chain: MEGGKGPRLRDFLSGSLATWALGLAGLVGEAEDSEGEEEEEEEEPPLWLEKRFLRLSDGALLLRVLGIIAPSSRGGPRMLRGLDGPAAWRVWNLNHLWGRLRDFYQEELQLLILSPPPDLQTLGFDPLSEEAVEQLEGVLRLLLGASVQCEHRELFIRHIQGLSLEVQSELAAAIQEVTQPGAGVVLALSGPDPGELAPAELEMLSRSLMGTLSKLARERDLGAQRLAELLLEREPLCLRPEAPSRAPAEGPSHHLALQLANAKAQLRRLRQELEEKAELLLDSQAEVQGLEAEIRRLRQEAQALSGQAKRAELYREEAEALRERAGRLPRLQEELRRCRERLQAAEAYKSQLEEERVLSGVLEASKALLEEQLEAARERCARLHETQRENLLLRTRLGEAHAELDSLRHQVDQLAEENVELELELQRSLEPPPGSPGEAPLAGAAPSLQDEVREAEAGRLRTLERENRELRGLLQVLQGQPGGQHPLLEAPREDPVLPVLEEAPQTPVAFDHSPQGLVQKARDGGPQALDLAPPALDSVLEASAECPQAPDSDPQEAESPLQAAAMDPQASDWSPQESGSPVETQESPEKAGRRSSLQSPASVAPPQGPGTKIQAPQLLGGETEGREAPQGELVPEAWGLRQEGPEHKPGPSEPSSVQLEEQEGPNQGLDLATGQAEAREHDQRLEGTVRDPAWQKPQQKSEGALEVQVWEGPIPGESLASGV
As to B1, the binding result was “binds”.
